One molecule from patent US20180057888A1 (University of Texas, published 2018) can be followed below.

The target of the test is RNA Polymerase II (RNAPII), phospho-Ser2 C-terminal domain (pS2-CTD) (UniProt P24928 1-1970). Briefly: co-immunoprecipitation with anti-c-myc antibody, Western blot for RNAPII. As to the method:
Whole-cell lysates and nuclear extracts were prepared as previously described (Morales et al., 2014). See Supplementary Table S2 for a list of specific antibodies and dilutions used. Protein concentrations were determined by BCA Assay following manufacturer's instructions (Thermo Scientific). Normalized protein samples were separated on denaturing gradient gels (4-20% from BioRad) and were transferred to PVDF membranes for immunoblotting. After transfer, the membranes were first blocked with 1× Sigma Blocking Buffer for an hour at room temperature. The membranes were then incubated with the indicated primary antibodies diluted in 1× Sigma Blocking Buffer at 4° C. overnight. After this step, the membranes were washed with PBST (3×, 10 minutes each). HRP-conjugated secondary antibodies were diluted in 1× Sigma Blocking Buffer and incubated with the membranes at room temperature for 1 hr. […]
Log phase cells were plated in 10-cm dishes, and incubated after transfection with either empty pCMV-myc vector, myc-tagged wild-type K-H or myc-tagged mutant K-H (R106A) constructs for 48 hr using Lipofectamine 2000. […] Co-immunoprecipitated proteins (e.g., RNAPII) were analyzed by Western blot as previously described.
For orientation: Immunoblotting shows a protein as a band on a membrane.

B1: myc-tagged mutant K-H (R106A) (other)
chain: MSSFSESALEKKLSELSNSQQSVQTLSLWLIHHRKHAGPIVSVWHRELRKAKSNRKLTFLYLANDVIQNSKRKGPEFTREFESVLVDAFSHVAREADEGCKKPLEALLNIWQERSVYGGEFIQQLKLSMEDSKSPPPKATEEKKSLKRTFQQIQEEEDDDYPGSYSPQDPSAGPLLTEELIKALQDLENAASGDATVRQKIASLPQEVQDVSLLEKITDKEAAERLSKTVDEACLLLAEYNGRLAAELEDRRQLARMLVEYTQNQKDVLSEKEKKLEEYKQKLARVTQVRKELKSHIQSLPDLSLLPNVTGGLAPLPSAGDLFSTD
notes: Expressed from a transfected myc-tagged construct and immunoprecipitated with anti-c-myc antibody; also called R106A mutant K-H; mutant R106A K-H; not shown: myc tag from the pCMV-myc vector
With B1, the binding result is listed as “no binding”.
